T1: recombinant human MOG protein (human, UniProt Q16653 30-154, limits assumed)
T1 construct: Bought recombinant protein; also called HMOG
T1 sequence (looked up): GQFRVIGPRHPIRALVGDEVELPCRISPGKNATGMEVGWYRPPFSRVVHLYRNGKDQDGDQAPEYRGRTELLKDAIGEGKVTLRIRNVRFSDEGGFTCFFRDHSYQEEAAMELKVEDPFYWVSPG

T2: recombinant murine MOG protein (murine, UniProt Q61885 29-156, limits assumed)
T2 construct: Bought recombinant protein; also called MMOG
T2 sequence (looked up): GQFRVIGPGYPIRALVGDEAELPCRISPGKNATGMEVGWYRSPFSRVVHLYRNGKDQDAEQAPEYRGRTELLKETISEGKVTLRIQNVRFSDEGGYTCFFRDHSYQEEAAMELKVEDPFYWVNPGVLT


What was measured:
[1] = molecular target: T1, recombinant human MOG protein; test: phage-scFv ELISA on coated recombinant human MOG (0.5 µg/well), anti-M13 HRP, OD450 over BSA background
Method: (§1) The binding characteristics of the scFvs expressed on the surface of the phages isolated during the screening were determined using an ELISA assay using the recombinant MOG protein (R&D system). Along with the selected clones, phage-scFv-8-18C5 is expressed to serve as a positive control for ELISA. Briefly, phage-scFv were produced in the form of clones isolated on a 96-well plate in 800 μl of 2YT/ampicillin/glucose cultures infected with the helper phage M13K07 (as described previously). The phages produced overnight at 26° C. were then recovered in the supernatants after 30 minutes of centrifugation at 3000 g. These supernatants were directly diluted 1/2 in PBS/4% BSA/0.1% Tween 20 and tested on Maxisorp immunoplates previously coated with 0.5 μg of human or murine MOG or PBS (background control (bdf) in BSA)/well and blocked with 4% BSA in PBS. After incubation for 2 hours at 37° C., the wells were washed 3 times with PBS/0.1% Tween-20 and bound phages-scfv were detected with anti-M13 HRP antibody (GE Healthcare). The plate is read at 450 nm (OD) on a plate reader (TECAN). The results are expressed as a ratio: OD on target/OD bdf (OD on an uncoated plate saturated with BSA) and the ratios are compared with that obtained for the positive control.

[2] = molecular target: T2, recombinant murine MOG protein; test: phage-scFv ELISA on coated recombinant murine MOG (0.5 µg/well), anti-M13 HRP, OD450 over BSA background
Method: as §1

Binder | ratio OD on target/OD bdf [1] [ratio] | ratio OD on target/OD bdf [2] [ratio]
anti-MOG MO4H-03 antibody (scFv, V domains shown) VH: QVQLVQSGTEVKKPGASVKVSCKVSGYTLTELSMHWVRQAPGKGLEWMGGFDPEDGETIYAQKFQGRVTMTEDTSTDTAYMELSSLRSEDTAVYYCATGATGAFDIWGQGTTVTVSS VL: DIVMTQTPLSSPVTLGQPASISCRSSQSLVDSDGNTYLNWLQQRPGQPPRLLIYKISNRFSGVPDRFSGSGAGTEFTLKISRVEAEDVGVYYCMQATQFPHTFGQGTKLEIK | 5.14 | 9.12
anti-MOG MO4H-04 antibody (scFv, V domains shown) VH: EVQLVQSGAEVKKPVASVKVSCKASGYTFTSYGISWVRQAPGQGLEWMGWISAYNGNTNYAQKLQGRVTMTTDTSTSTAYMELRSLRSDDTAVYYCARNMGCSSTSCFVSWFDPWGQGTLVTVSS VL: QSALTQPPSASGSPGQSVTISCTGTHSDVGSFDSVSWYQQHPDKAPKLIIYDVNKRPAGVPHRFSGSKSGNTASLTVSGLQSEDEADYYCNSYAGVDNFVFGTGTKVTVL | 9.36 | 9.78
anti-MOG MO4H-46 antibody (scFv, V domains shown) VH: QVQLVQSGAEVKKPGASVKVSCKASGYTFTSYAMHWVRQAPGQRLEWMGWINAGNGNAKYSQKFQGRVTLTRDTSASTAYMKLSSLRSEDTAVYYCARGAPTYRYFDLWGRGTLVTVSS VL: QSVLTQPPSVSAAPGQKVTISCSGSSSNIGNNYVAWYQQLPGTAPKLLIYDNNKRPSGIPDRFSGSKSGTSATLGITGLQTGDEADYYCGTSDSSLSAVVFGGGTKLTVL | 6.57 | 4.68
anti-MOG MO3B-03 antibody (scFv, V domains shown, T0004 labels followed) VH: QVQLQQSGPGLVRPSQTLSLTCAISGDSVSSSSAAWNWVRSPSRGLEWLGRTYYRSKWYYDYAVSVKNRIAINPDTSKNQFSLHLNSVTPEDTAVYYCATGWLRGHLDYWGQGTLVTVSS VL: AIQMTQSPSSVSASVGDRVTITCRATQSISTYLNWYQQKVGRGPKLLVYAASRLQTGVPSRFSGSGSGTDFTLTISSLQPEDSATYYCQQSYSAPPAFGGGTKVEIK | 6.23 | 5.55
anti-MOG MO3F-02 antibody (scFv, V domains shown) VH: QVQLQQSGPGLVKPSQTLSLTCAISGDSVSSNSAAWNWIRKSPSRGLEWLGRTYYRSKWYNDYAVSVKSRITINPDTSKNQFSLQLSSVTPEDTAVYYCARASAGTFGYWGQGTLVTVSS VL: DIVMTQSPSSLSASVGDRVTMTCRASQTINTYLNWYQQKPGKAPKLLIYAASTLQSGVPSRFSGSGSGTDFSLTISSLQPEDFATYYCQHGYNNPPFTFGPGTKVDIK | 13.8 | 22.1
anti-MOG MO4B-42 antibody (scFv, V domains shown) VH: MAGSLQVDQVQLVQSGAEVKRPGESLKISCEGSGYSFTSSWIGWVRQMPGKGLECMGIIYPGDSDTRYSPSFQGHVTISADKSISTAYLQWSSLRASDTAMYYCARAYHSDYGFDFWGQGTLVTVSS VL: EIVLTQPLSVSESPGKTVTISCTRSSGSIANNFVQWYQRRPGSSPTTVIYENDQRPSGVPDRFSGSIDSSSNSASLTITGLETQDEADYYCQSFNDDVGGGNSGGGTK | 6.11 | 6.68
anti-MOG MO4B-43 antibody (scFv, V domains shown) VH: DEVQLLESGGGLVPGGSLRLSCEVSGFSFSNHAMHWVRQAPGKALEHLSVLGSDGRSTYYADSVKGRFTISRDISKTTVYLQMGSLRPGDMGVYYCARGLYGDHWDASDLWGQGTMVTVSS VL: EIVMTQSPATLSVSPAERVILSCRASQSVGNNVAWFQQKPGQAPRLLIHGASSRATGIPTRFSGSGSGTELTLTISSLQSEDFAVYYCQQYGSAPITFGQGTRLEIK | 5.82 | 9.56
anti-MOG MO3J-05 antibody (scFv, V domains shown) VH: EVQLVQSGAEVKKPGASVKVSCKASGYTFTSYGISWVRQAPGQGLEWMGWISAYNGNTNYAQKLQGRVTMTTDTSTSTAYMELRSLRSDDTAVYYCARNMGCSSTSCFVSWFDPWGQGTLVTVSS VL: not shown | 16.4 | 7.53
anti-MOG MO3J-12 antibody (scFv, V domains shown) VH: EVQLLESGGGLVQPGGSLRLSCAASGFTFSTYWMHWVRQAPGRGLVWVSRINTDGSSTDYADSVKGRFTISRDNAKNTLYLQMNSLRAEDTAVYSCARGGQLVAAANDNWLDPWGQGTLVTVSS VL: AIQLTQSPSSLSASAGDRVTITCRASQSINNYLNWYQQKPGKAPKVLIYGASNLQSGVPSRFSGSGSGTDFTLTISSLQPEDFATYYCQQSYSTPRTFGQGTKVEIK | 16.4 | 8.99
anti-MOG MO3J-19 antibody (scFv, V domains shown) VH: EVQLVQSGAEVKKPGASVKVSCKASGYTFTSYGISWVRQAPGQGLEWMGWISAYNGNTNYAQKLQGRVTMTTDTSTSTAYMELRSLRSDDTAVYYCARNMGCSSTSCFVSWFDPWGQGTLVTVSS VL: QSVLTQPPSASGTPGQRVTISCSGSTSNIGSQIVNWYQQLPGTAPRLIIYNDNERPSGVSDRFSGSKSDTSASLAISGLQSEDEADYYCAAWDDSLNGYVFGTGTKVTVL | 11.7 | 5.66
anti-MOG MO3J-23 antibody (scFv, V domains shown) VH: DQVQLVQSGAEVKPGASVKVSCKASGYTFTSYGISWVRQAPGQGLEWMGWISAYNGNTNYAQKLQGRVTMTTDTSTSTAYMELRSLRSDDTAVYYCARDPVGSLRPYYMDVWGEGTTVTVSS VL: DIVMTQSPSTLSASVGDRVTITCRASQSISTWLAWYQQKPGKAPKLLIYAASSLQSGVPSRFSGSGSGTDFTLTISSLQPEDFATYYCQQSYSTPRTFGQGTKVEIK | 15.9 | 7.46
anti-MOG MO3J-26 antibody (scFv, V domains shown) VH: QVQLVQSGAEVKKPGSSVKVSCKASGGTFSTYTLSWVRQAPGKGLEWMGGFDPEDGETIYAQKFQGRVTMTEDTSTDTAYLELSSLRSDDTAVYYCAADEFWGPGTLVTVSS VL: QSVLTQPPSVSAAPGQTVTISCSGSSSNIGNNYVSWYQQLPGTAPKLLIYDNNKRPSGIPDRFSGSKSGTSATLGITGLQTGDEADYYCGTWDSSLSAVVFGGGTKLTVL | 14.6 | 3.62
anti-MOG MO3J-37 antibody (scFv, V domains shown) VH: EVQLVESGGGLVQPGRSLRLSCAASGFTFDDYAMHWVRQAPGKGLEWVSGISWNSGSIGYADSVKGRFTISRDNAKNSLYLQMNSLRAEDTALYYCAKDMRAVAGTEGAFDIWGQGTMVTVSS VL: QSVVTQPPSMSAAPGQKVTISCSGSSSNIGNNYVSWYQQLPGTAPKLLIYENNKRPSGISDRFSGSKSGTSATLGITGLQTGDEADYYCATGDSGMTLVFGGGTKLTVL | 12.9 | 6.66
anti-MOG MO3J-38 antibody (scFv, V domains shown) VH: QVQLVQSGPEVRKPGASVKVSCRASGYTFTSNDINWVRQAAGQGLEYLGWLHPKSGGTGYAQKFQGRVTMTRDTSISTAYLELSNLTSDDTAVYYCARVSFDEVIDFWGQGTLVTVSS VL: not shown | 18.4 | 5.59
anti-MOG MO4H-51 antibody (scFv, V domains shown) VH: QVQLVQSGAEVKKPGASVKVSCKASGYTFTSYGMHWVRQAPGQRLEWMGWINPGNGNTKYSQKFQGRVTITRDTSASTAYMDLSSLRSEDTAVYYCARLPRIGGWFDPWGQGTLVTVSS VL: not shown | 3.46 | –
anti-MOG MO4H-55 antibody (scFv, V domains shown) VH: QVQLQQSGPGLVKPSQTLSLTCAISGDSVSSNSAAWNWIRQSPSRGLEWLGRTYYRSKWYNDYAESVKSRMTVTSDTSKNQVSLHLNSVTPEDTAVYYCAREHIAVPGVFDIWGQGTLVTVSS VL: DVVMTQPPSASGTPGQGVTISCSGSSSNIGSNTVNWYQQLPGTAPKLLIYGSGQRPSGVPDRFSGSRSGTSASLAISGLQSEDEADYYCAAWDDSLNGRVFGQGTKVDIT | 2.99 | –
anti-MOG MO4H-65 antibody (scFv, V domains shown) VH: EVQLVQPGAEVKKPGASVKVSCKASDYTFTSYGISWVRQAPGQGLEWMGWISAYNGNTYYARKFGRVTMTTDTSTTTAYMELRRLRSEDTAVYYCARSGVDNIDYLFDYWGQGTLVTVSS VL: EIVMTQSPGTMSVSPGESATLSCRASQSVSSNLAWYQQKPGQAPRLLIYGASTRATGLPARFSGSGSRTDFTLTISSLQPEDFATYYCQQTTSFPLTFSGGTKLEIT | 2.44 | –
anti-MOG MO3J-72 antibody (scFv, V domains shown) VH: EVQLVESGGGSVKPGGSLRLSCAASGFRFDDYAMHWVRQAPGKGLEWVSGISWNSGAIGYADSVQGRFTISGDNAKNTLYLQMNGLRVEDTAMYYCARDGHGDYPIDYWGQGTLVTVSS VL: QSVLTQPPSVSGAPGQRVSISCTGSGSNIGAGFDVHWYQQVPGTTPKLLIYGNNNRPSGVPDRFSGSTSATSASLAITGLQADDEADYYCQSYDRSLRYVFGTGTKLTVL | 2.05 | –

— patent publication US20210238281A1 (INSTITUT NATIONAL DE LA SANTE ET DE LA RECHERCHE MEDICALE …, published 2021)
